The values that follow come from patent publication US20240316101.

For series [1], the system named is PEG12-Tregitope peptide (Peg12-Val-Cit-Tregitope-Nle).
Series [2] relates to PEG2-Tregitope peptide (KKKK-Peg2-Val-Cit-Tregitope-Nle).

Regarding “Recombinant human Cathepsin B (catalog 953-CY of R&D Systems)”, the “cleavage of the Val-Cit site, evaluated by mass spec” value is “For the PEG12 product, successful cleavage was demonstrated” in series [1] and “the PEG2 peptide did not have successful cleavage” in series [2].
